The text below walks through data of article PMC12416549 (2024).

T1: TNFR1 (Homo sapiens, UniProt P19438)
T1 chain: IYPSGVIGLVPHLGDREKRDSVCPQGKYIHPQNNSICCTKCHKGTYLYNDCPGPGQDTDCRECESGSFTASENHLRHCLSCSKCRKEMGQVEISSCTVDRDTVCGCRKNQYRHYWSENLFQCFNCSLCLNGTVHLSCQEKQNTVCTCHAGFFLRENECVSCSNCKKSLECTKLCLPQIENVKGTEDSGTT

B1: K103Q (designed binder)
chain: MTLQELLREEALRRAEAEAFRYALELLAEKFPEQKEYLLDLAEEIESQIRSLSGVDVEDVRKFLDKEWAWVKELLAEHPAELAEVEAARAARLAELRAEVEAQVAA
B2: S53E (designed binder)
chain: MTLQELLREEALRRAEAEAFRYALELLAEKFPEQKEYLLDLAEEIESQIRSLEGVDVEDVRKFLDKEWAWVKELLAEHPAELAEVEAARAARLAELRAEVEAKVAA
B3: K66D (designed binder)
chain: MTLQELLREEALRRAEAEAFRYALELLAEKFPEQKEYLLDLAEEIESQIRSLSGVDVEDVRKFLDDEWAWVKELLAEHPAELAEVEAARAARLAELRAEVEAKVAA
B4: D40N (designed binder)
chain: MTLQELLREEALRRAEAEAFRYALELLAEKFPEQKEYLLNLAEEIESQIRSLSGVDVEDVRKFLDKEWAWVKELLAEHPAELAEVEAARAARLAELRAEVEAKVAA
B5: R92K (designed binder)
chain: MTLQELLREEALRRAEAEAFRYALELLAEKFPEQKEYLLDLAEEIESQIRSLSGVDVEDVRKFLDKEWAWVKELLAEHPAELAEVEAARAAKLAELRAEVEAKVAA
B6: K72E (designed binder)
chain: MTLQELLREEALRRAEAEAFRYALELLAEKFPEQKEYLLDLAEEIESQIRSLSGVDVEDVRKFLDKEWAWVEELLAEHPAELAEVEAARAARLAELRAEVEAKVAA
B7: Q4H (designed binder)
chain: MTLHELLREEALRRAEAEAFRYALELLAEKFPEQKEYLLDLAEEIESQIRSLSGVDVEDVRKFLDKEWAWVKELLAEHPAELAEVEAARAARLAELRAEVEAKVAA
B8: L75W (designed binder)
chain: MTLQELLREEALRRAEAEAFRYALELLAEKFPEQKEYLLDLAEEIESQIRSLSGVDVEDVRKFLDKEWAWVKELWAEHPAELAEVEAARAARLAELRAEVEAKVAA
B9: S53T (designed binder)
chain: MTLQELLREEALRRAEAEAFRYALELLAEKFPEQKEYLLDLAEEIESQIRSLTGVDVEDVRKFLDKEWAWVKELLAEHPAELAEVEAARAARLAELRAEVEAKVAA
B10: V60R (designed binder)
chain: MTLQELLREEALRRAEAEAFRYALELLAEKFPEQKEYLLDLAEEIESQIRSLSGVDVEDRRKFLDKEWAWVKELLAEHPAELAEVEAARAARLAELRAEVEAKVAA
B11: A88S (designed binder)
chain: MTLQELLREEALRRAEAEAFRYALELLAEKFPEQKEYLLDLAEEIESQIRSLSGVDVEDVRKFLDKEWAWVKELLAEHPAELAEVEASRAARLAELRAEVEAKVAA
B12: Q4V (designed binder)
chain: MTLVELLREEALRRAEAEAFRYALELLAEKFPEQKEYLLDLAEEIESQIRSLSGVDVEDVRKFLDKEWAWVKELLAEHPAELAEVEAARAARLAELRAEVEAKVAA
B13: A87L (designed binder)
chain: MTLQELLREEALRRAEAEAFRYALELLAEKFPEQKEYLLDLAEEIESQIRSLSGVDVEDVRKFLDKEWAWVKELLAEHPAELAEVELARAARLAELRAEVEAKVAA
B14: E81V (designed binder)
chain: MTLQELLREEALRRAEAEAFRYALELLAEKFPEQKEYLLDLAEEIESQIRSLSGVDVEDVRKFLDKEWAWVKELLAEHPAVLAEVEAARAARLAELRAEVEAKVAA
B15: K103R (designed binder)
chain: MTLQELLREEALRRAEAEAFRYALELLAEKFPEQKEYLLDLAEEIESQIRSLSGVDVEDVRKFLDKEWAWVKELLAEHPAELAEVEAARAARLAELRAEVEARVAA
B16: Q4A (designed binder)
chain: MTLAELLREEALRRAEAEAFRYALELLAEKFPEQKEYLLDLAEEIESQIRSLSGVDVEDVRKFLDKEWAWVKELLAEHPAELAEVEAARAARLAELRAEVEAKVAA
B17: E86L (designed binder)
chain: MTLQELLREEALRRAEAEAFRYALELLAEKFPEQKEYLLDLAEEIESQIRSLSGVDVEDVRKFLDKEWAWVKELLAEHPAELAEVLAARAARLAELRAEVEAKVAA
B18: E81D (designed binder)
chain: MTLQELLREEALRRAEAEAFRYALELLAEKFPEQKEYLLDLAEEIESQIRSLSGVDVEDVRKFLDKEWAWVKELLAEHPADLAEVEAARAARLAELRAEVEAKVAA
B19: V57I (designed binder)
chain: MTLQELLREEALRRAEAEAFRYALELLAEKFPEQKEYLLDLAEEIESQIRSLSGVDIEDVRKFLDKEWAWVKELLAEHPAELAEVEAARAARLAELRAEVEAKVAA
B20: A23L (designed binder)
chain: MTLQELLREEALRRAEAEAFRYLLELLAEKFPEQKEYLLDLAEEIESQIRSLSGVDVEDVRKFLDKEWAWVKELLAEHPAELAEVEAARAARLAELRAEVEAKVAA
B21: L96K (designed binder)
chain: MTLQELLREEALRRAEAEAFRYALELLAEKFPEQKEYLLDLAEEIESQIRSLSGVDVEDVRKFLDKEWAWVKELLAEHPAELAEVEAARAARLAEKRAEVEAKVAA
B22: V57P (designed binder)
chain: MTLQELLREEALRRAEAEAFRYALELLAEKFPEQKEYLLDLAEEIESQIRSLSGVDPEDVRKFLDKEWAWVKELLAEHPAELAEVEAARAARLAELRAEVEAKVAA
B23: A76M (designed binder)
chain: MTLQELLREEALRRAEAEAFRYALELLAEKFPEQKEYLLDLAEEIESQIRSLSGVDVEDVRKFLDKEWAWVKELLMEHPAELAEVEAARAARLAELRAEVEAKVAA
B24: A28K (designed binder)
chain: MTLQELLREEALRRAEAEAFRYALELLKEKFPEQKEYLLDLAEEIESQIRSLSGVDVEDVRKFLDKEWAWVKELLAEHPAELAEVEAARAARLAELRAEVEAKVAA
B25: A105H (designed binder)
chain: MTLQELLREEALRRAEAEAFRYALELLAEKFPEQKEYLLDLAEEIESQIRSLSGVDVEDVRKFLDKEWAWVKELLAEHPAELAEVEAARAARLAELRAEVEAKVHA
B26: P79Q (designed binder)
chain: MTLQELLREEALRRAEAEAFRYALELLAEKFPEQKEYLLDLAEEIESQIRSLSGVDVEDVRKFLDKEWAWVKELLAEHQAELAEVEAARAARLAELRAEVEAKVAA
B27: E95A (designed binder)
chain: MTLQELLREEALRRAEAEAFRYALELLAEKFPEQKEYLLDLAEEIESQIRSLSGVDVEDVRKFLDKEWAWVKELLAEHPAELAEVEAARAARLAALRAEVEAKVAA
B28: D59W (designed binder)
chain: MTLQELLREEALRRAEAEAFRYALELLAEKFPEQKEYLLDLAEEIESQIRSLSGVDVEWVRKFLDKEWAWVKELLAEHPAELAEVEAARAARLAELRAEVEAKVAA
B29: Q4I (designed binder)
chain: MTLIELLREEALRRAEAEAFRYALELLAEKFPEQKEYLLDLAEEIESQIRSLSGVDVEDVRKFLDKEWAWVKELLAEHPAELAEVEAARAARLAELRAEVEAKVAA
B30: E9H (designed binder)
chain: MTLQELLRHEALRRAEAEAFRYALELLAEKFPEQKEYLLDLAEEIESQIRSLSGVDVEDVRKFLDKEWAWVKELLAEHPAELAEVEAARAARLAELRAEVEAKVAA
B31: R97C (designed binder)
chain: MTLQELLREEALRRAEAEAFRYALELLAEKFPEQKEYLLDLAEEIESQIRSLSGVDVEDVRKFLDKEWAWVKELLAEHPAELAEVEAARAARLAELCAEVEAKVAA
B32: K66G (designed binder)
chain: MTLQELLREEALRRAEAEAFRYALELLAEKFPEQKEYLLDLAEEIESQIRSLSGVDVEDVRKFLDGEWAWVKELLAEHPAELAEVEAARAARLAELRAEVEAKVAA
B33: K103C (designed binder)
chain: MTLQELLREEALRRAEAEAFRYALELLAEKFPEQKEYLLDLAEEIESQIRSLSGVDVEDVRKFLDKEWAWVKELLAEHPAELAEVEAARAARLAELRAEVEACVAA
B34: P32S (designed binder)
chain: MTLQELLREEALRRAEAEAFRYALELLAEKFSEQKEYLLDLAEEIESQIRSLSGVDVEDVRKFLDKEWAWVKELLAEHPAELAEVEAARAARLAELRAEVEAKVAA

This assay concerns the target T1, TNFR1. Put plainly: yeast display SC50.
For the molecule B1, the “apparent Kd (screen)” value was determined as 0.539 nM.

Regarding B2, the “apparent Kd (screen)” value turned out to be 2.25 nM.

With B3, the “apparent Kd (screen)” value is 0.49 nM.

B4: the “apparent Kd (screen)” value is 2.48 nM.

On to B5, for which the “apparent Kd (screen)” value was 0.593 nM.

Take B6: the “apparent Kd (screen)” value came out at 0.869 nM.

In the case of B7, the “apparent Kd (screen)” value was 0.79 nM.

For the molecule B8, the “apparent Kd (screen)” value came out at 1.16 nM.

Turning to B9, the “apparent Kd (screen)” value amounted to 0.49 nM.

Take B10: the “apparent Kd (screen)” value was 12.5 nM.

With B11, the “apparent Kd (screen)” value was found to be 0.539 nM.

B12: the “apparent Kd (screen)” value came to 0.49 nM.

As for B13, the “apparent Kd (screen)” value came out at 0.653 nM.

For B14, the “apparent Kd (screen)” value is 0.593 nM.

In the case of B15, the “apparent Kd (screen)” value was determined as 0.446 nM.

As for B16, the “apparent Kd (screen)” value is 0.718 nM.

For the molecule B17, the “apparent Kd (screen)” value came to 3 nM.

In the case of B18, the “apparent Kd (screen)” value stood at 0.718 nM.

As to B19, the “apparent Kd (screen)” value amounted to 2.73 nM.

For B20, the “apparent Kd (screen)” value was 0.593 nM.

As for B21, the “apparent Kd (screen)” value came out at 0.49 nM.

Consider B22, for which the “apparent Kd (screen)” value turned out to be 1.54 nM.

On to B23, for which the “apparent Kd (screen)” value turned out to be 0.869 nM.

In the case of B24, the “apparent Kd (screen)” value is 10.4 nM.

Take B25: the “apparent Kd (screen)” value worked out at 0.49 nM.

With B26, the “apparent Kd (screen)” value is 0.593 nM.

In the case of B27, the “apparent Kd (screen)” value was 0.593 nM.

Take B28: the “apparent Kd (screen)” value came out at 1.05 nM.

In the case of B29, the “apparent Kd (screen)” value is 0.446 nM.

With B30, the “apparent Kd (screen)” value amounted to 0.593 nM.

For the molecule B31, the “apparent Kd (screen)” value is 1.05 nM.

Regarding B32, the “apparent Kd (screen)” value is 0.539 nM.

In the case of B33, the “apparent Kd (screen)” value amounted to 0.539 nM.

Regarding B34, the “apparent Kd (screen)” value came out at 0.49 nM.
